First the molecules themselves.
B1: v23820 (antibody, human IgG1, kappa, V domains shown)
VH: QEQLVESGGGLVQPEGSLTLTCKASGFTISNNYYMCWVRQAPGKGLEWIACIYGGISGRTYYASWAKGRFTISKTSSTTVTLQMTSLTAADTATYFCVRGYVGTSNLWGPGTLVTVSS
VL: DIVMTQTPASVEAAVGGTVTIKCQASQSIYSSLAWYQQKPGQSPKLLIYDASHLASGVPSRFSGSRYGTEFTLTISGVQCDDAATYYCQGGWYSSAATYVPNTFGGGTEVVVKR
notes: FSA format; rabbit variable domains, human IgG1/kappa constant domains; also called 8K22 rabbit-human parental chimera
B2: v23802 (antibody, human IgG1, kappa)
heavy: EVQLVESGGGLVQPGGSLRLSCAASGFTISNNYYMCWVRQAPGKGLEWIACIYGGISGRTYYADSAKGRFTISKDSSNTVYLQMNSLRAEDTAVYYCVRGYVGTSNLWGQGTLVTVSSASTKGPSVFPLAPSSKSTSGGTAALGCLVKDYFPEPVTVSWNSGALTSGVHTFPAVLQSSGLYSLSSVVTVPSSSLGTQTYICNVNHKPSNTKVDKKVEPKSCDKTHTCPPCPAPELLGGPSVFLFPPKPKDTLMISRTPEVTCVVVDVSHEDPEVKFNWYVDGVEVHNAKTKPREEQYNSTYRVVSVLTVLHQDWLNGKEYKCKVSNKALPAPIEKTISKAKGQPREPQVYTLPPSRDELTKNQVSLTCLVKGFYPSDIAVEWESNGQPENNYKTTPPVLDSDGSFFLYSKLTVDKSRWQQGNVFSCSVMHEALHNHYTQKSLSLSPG
light: DIQMTQSPSSLSASVGDRVTITCQASQSIYSSLAWYQQKPGKAPKLLIYDASHLASGVPSRFSGSGSGTDFTLTISSVQPEDFATYYCQGGWYSSAATYVPNTFGGGTKVEVKRTVAAPSVFIFPPSDEQLKSGTASVVCLLNNFYPREAKVQWKVDNALQSGNSQESVTEQDSKDSTYSLSSTLTLSKADYEKHKVYACEVTHQGLSSPVTKSFNRGEC
notes: also called humanized 8K22 H4L2
B3: v23801 (antibody, human IgG1, kappa)
heavy: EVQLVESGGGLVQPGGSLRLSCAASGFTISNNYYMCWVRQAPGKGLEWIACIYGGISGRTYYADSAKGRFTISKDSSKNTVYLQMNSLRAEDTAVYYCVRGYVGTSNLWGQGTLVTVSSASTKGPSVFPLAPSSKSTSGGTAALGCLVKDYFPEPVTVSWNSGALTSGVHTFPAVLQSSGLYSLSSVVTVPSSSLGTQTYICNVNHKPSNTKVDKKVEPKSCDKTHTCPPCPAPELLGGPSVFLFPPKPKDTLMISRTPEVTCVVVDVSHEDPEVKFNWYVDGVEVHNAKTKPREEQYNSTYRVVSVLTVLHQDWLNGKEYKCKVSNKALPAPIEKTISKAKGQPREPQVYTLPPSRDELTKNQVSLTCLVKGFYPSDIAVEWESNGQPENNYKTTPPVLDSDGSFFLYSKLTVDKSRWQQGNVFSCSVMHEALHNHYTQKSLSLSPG
light: B2 light
notes: also called humanized 8K22 H3L2
B4: v23814 (antibody, human IgG1, kappa, V domains shown)
VH: EVQLVESGGGLVQPGGSLRLSCAASGFTISNNYYMCWVRQAPGKGLEWVSCIYGGISGRTYYADSVKGRFTISKDNSKNTLYLQMNSLRAEDTAVYYCVRGYVGTSNLWGQGTLVTVSS
VL: DIQMTQSPSSLSASVGDRVTITCQASQSIYSSLAWYQQKPGKAPKLLIYDASHLASGVPSRFSGSRYGTDFTLTISSVQPEDAATYYCQGGWYSSAATYVPNTFGGGTKVEVKR
notes: also called humanized 8K22 H1L5
B5: v23796 (antibody, human IgG1, kappa)
heavy: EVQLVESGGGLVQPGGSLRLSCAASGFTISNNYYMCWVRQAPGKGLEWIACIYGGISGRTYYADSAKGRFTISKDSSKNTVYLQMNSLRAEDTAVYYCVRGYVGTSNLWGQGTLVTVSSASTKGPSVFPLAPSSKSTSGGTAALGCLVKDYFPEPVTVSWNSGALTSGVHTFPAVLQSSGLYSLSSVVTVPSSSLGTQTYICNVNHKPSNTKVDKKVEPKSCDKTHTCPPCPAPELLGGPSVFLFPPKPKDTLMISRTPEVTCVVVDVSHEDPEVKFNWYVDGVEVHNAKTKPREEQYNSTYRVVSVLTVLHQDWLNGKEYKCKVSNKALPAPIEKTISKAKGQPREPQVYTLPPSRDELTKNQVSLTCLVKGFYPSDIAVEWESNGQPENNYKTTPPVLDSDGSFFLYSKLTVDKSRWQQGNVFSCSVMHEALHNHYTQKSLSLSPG
light: B2 light with V112I
notes: also called humanized 8K22 H3L1
B6: v23807 (antibody, human IgG1, kappa, V domains shown)
VH: EVQLVESGGGLVQPGGSLRLSCAASGFTISNNYYMCWVRQAPGKGLEWIACIYGGISGRTYYADSAKGRFTISKDSSNTVYLQMNSLRAEDTAVYYCVRGYVGTSNLWGQGTLVTVSS
VL: B4 VL with A83F
notes: also called humanized 8K22 H4L3
B7: v23799 (antibody, human IgG1, kappa)
heavy: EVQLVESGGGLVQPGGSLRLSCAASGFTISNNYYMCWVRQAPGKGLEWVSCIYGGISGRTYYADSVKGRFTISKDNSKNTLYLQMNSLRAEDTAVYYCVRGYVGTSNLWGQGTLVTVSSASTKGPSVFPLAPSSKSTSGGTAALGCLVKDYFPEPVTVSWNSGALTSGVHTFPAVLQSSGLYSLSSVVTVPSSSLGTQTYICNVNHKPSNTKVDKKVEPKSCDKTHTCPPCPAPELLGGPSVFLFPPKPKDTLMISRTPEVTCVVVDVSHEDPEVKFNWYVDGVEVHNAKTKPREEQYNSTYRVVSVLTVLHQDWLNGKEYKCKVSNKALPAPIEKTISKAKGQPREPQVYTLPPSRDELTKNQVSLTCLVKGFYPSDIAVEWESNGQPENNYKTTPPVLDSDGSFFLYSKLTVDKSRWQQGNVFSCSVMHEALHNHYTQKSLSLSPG
light: B2 light
notes: also called humanized 8K22 H1L2
B8: v23809 (antibody, human IgG1, kappa, V domains shown)
VH: B4 VH
VL: B4 VL with R66G, Y67S
notes: also called humanized 8K22 H1L4
B9: v23816 (antibody, human IgG1, kappa, V domains shown)
VH: B4 VH with V49I, S50A, V66A, N76S, L81V
VL: B4 VL
notes: also called humanized 8K22 H3L5
B10: v23794 (antibody, human IgG1, kappa)
heavy: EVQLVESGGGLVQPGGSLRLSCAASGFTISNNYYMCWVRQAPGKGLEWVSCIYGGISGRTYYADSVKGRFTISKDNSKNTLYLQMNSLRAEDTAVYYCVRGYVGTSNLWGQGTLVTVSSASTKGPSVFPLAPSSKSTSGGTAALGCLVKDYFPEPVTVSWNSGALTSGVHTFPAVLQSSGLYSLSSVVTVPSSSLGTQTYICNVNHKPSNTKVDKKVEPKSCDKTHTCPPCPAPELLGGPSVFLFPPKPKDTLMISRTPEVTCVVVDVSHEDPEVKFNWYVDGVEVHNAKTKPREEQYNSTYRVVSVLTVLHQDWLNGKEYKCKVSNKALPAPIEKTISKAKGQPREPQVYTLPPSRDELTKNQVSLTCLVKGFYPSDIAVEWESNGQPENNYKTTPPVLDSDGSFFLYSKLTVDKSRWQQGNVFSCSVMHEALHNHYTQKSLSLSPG
light: B2 light with V112I
notes: also called humanized 8K22 H1L1
B11: v23806 (antibody, human IgG1, kappa, V domains shown)
VH: B4 VH with V49I, S50A, V66A, N76S, L81V
VL: B4 VL with A83F
notes: also called humanized 8K22 H3L3
B12: v23798 (antibody, human IgG1, kappa)
heavy: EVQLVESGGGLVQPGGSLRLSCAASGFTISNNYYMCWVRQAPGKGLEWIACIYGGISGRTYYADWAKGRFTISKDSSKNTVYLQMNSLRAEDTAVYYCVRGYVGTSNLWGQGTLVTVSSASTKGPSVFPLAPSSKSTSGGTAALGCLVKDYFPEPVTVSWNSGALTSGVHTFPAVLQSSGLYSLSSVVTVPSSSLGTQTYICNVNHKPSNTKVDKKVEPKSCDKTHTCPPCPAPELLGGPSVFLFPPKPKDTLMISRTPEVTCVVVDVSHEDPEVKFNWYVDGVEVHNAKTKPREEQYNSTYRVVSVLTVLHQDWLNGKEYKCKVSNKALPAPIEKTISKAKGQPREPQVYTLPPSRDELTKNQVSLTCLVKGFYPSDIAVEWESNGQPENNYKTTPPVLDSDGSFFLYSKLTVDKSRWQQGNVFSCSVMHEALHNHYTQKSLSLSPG
light: B2 light with V112I
notes: also called humanized 8K22 H5L1
B13: v23811 (antibody, human IgG1, kappa, V domains shown)
VH: B4 VH with V49I, S50A, V66A, N76S, L81V
VL: B4 VL with R66G, Y67S
notes: also called humanized 8K22 H3L4
B14: v23818 (antibody, human IgG1, kappa, V domains shown)
VH: B4 VH with V49I, S50A, S65W, V66A, N76S, L81V
VL: B4 VL
notes: also called humanized 8K22 H5L5
B15: v23815 (antibody, human IgG1, kappa, V domains shown)
VH: B4 VH with V49I, S50A, V66A, L81V
VL: B4 VL
notes: also called humanized 8K22 H2L5
B16: v23812 (antibody, human IgG1, kappa, V domains shown)
VH: B6 VH
VL: B4 VL with R66G, Y67S
notes: also called humanized 8K22 H4L4
B17: v23797 (antibody, human IgG1, kappa)
heavy: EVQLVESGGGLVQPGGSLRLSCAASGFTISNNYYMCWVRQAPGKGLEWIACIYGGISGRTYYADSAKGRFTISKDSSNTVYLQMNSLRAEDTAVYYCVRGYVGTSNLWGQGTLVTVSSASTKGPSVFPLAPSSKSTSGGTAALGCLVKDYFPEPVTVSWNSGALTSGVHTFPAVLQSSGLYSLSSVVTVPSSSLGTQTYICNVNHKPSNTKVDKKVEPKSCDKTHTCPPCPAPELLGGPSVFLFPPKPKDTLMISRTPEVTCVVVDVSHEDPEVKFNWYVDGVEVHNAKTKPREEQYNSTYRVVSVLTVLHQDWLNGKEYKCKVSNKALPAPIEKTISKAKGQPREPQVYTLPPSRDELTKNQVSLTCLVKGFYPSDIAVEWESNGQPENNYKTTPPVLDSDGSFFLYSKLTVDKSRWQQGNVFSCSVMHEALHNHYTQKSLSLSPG
light: B2 light with V112I
notes: also called humanized 8K22 H4L1
B18: v23804 (antibody, human IgG1, kappa, V domains shown)
VH: B4 VH
VL: B4 VL with A83F
notes: also called humanized 8K22 H1L3
B19: v23805 (antibody, human IgG1, kappa, V domains shown)
VH: B4 VH with V49I, S50A, V66A, L81V
VL: B4 VL with A83F
notes: also called humanized 8K22 H2L3
B20: v23817 (antibody, human IgG1, kappa, V domains shown)
VH: B6 VH
VL: B4 VL
notes: also called humanized 8K22 H4L5
B21: v23808 (antibody, human IgG1, kappa, V domains shown)
VH: B4 VH with V49I, S50A, S65W, V66A, N76S, L81V
VL: B4 VL with A83F
notes: also called humanized 8K22 H5L3
B22: v23800 (antibody, human IgG1, kappa)
heavy: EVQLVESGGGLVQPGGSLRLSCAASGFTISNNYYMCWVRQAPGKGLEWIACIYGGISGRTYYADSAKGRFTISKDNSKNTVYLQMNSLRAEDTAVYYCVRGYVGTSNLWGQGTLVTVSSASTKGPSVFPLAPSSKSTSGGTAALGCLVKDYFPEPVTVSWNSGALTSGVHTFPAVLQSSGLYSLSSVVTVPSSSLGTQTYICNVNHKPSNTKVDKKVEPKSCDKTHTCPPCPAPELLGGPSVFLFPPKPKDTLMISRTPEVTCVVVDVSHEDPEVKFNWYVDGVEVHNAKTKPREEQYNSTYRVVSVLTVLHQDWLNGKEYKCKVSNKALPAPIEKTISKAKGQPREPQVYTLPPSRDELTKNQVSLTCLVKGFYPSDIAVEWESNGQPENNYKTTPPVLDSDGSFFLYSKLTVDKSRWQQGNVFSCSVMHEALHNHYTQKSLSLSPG
light: B2 light
notes: also called humanized 8K22 H2L2
B23: v23813 (antibody, human IgG1, kappa, V domains shown)
VH: B4 VH with V49I, S50A, S65W, V66A, N76S, L81V
VL: B4 VL with R66G, Y67S
notes: also called humanized 8K22 H5L4
B24: v23810 (antibody, human IgG1, kappa, V domains shown)
VH: B4 VH with V49I, S50A, V66A, L81V
VL: B4 VL with R66G, Y67S
notes: also called humanized 8K22 H2L4
B25: v23803 (antibody, human IgG1, kappa)
heavy: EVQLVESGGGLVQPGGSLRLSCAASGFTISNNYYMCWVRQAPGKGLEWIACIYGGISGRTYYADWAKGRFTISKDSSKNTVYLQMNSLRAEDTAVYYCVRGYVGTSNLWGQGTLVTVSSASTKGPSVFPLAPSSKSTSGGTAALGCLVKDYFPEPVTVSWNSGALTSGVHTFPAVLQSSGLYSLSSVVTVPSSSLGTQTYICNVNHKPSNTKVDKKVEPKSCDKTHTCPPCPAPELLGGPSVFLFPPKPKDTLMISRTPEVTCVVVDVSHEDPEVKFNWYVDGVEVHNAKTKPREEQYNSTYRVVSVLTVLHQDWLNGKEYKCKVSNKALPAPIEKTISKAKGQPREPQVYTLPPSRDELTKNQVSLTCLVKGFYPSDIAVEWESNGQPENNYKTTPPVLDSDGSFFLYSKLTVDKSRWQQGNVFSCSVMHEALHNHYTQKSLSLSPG
light: B2 light
notes: also called humanized 8K22 H5L2
B26: v23795 (antibody, human IgG1, kappa)
heavy: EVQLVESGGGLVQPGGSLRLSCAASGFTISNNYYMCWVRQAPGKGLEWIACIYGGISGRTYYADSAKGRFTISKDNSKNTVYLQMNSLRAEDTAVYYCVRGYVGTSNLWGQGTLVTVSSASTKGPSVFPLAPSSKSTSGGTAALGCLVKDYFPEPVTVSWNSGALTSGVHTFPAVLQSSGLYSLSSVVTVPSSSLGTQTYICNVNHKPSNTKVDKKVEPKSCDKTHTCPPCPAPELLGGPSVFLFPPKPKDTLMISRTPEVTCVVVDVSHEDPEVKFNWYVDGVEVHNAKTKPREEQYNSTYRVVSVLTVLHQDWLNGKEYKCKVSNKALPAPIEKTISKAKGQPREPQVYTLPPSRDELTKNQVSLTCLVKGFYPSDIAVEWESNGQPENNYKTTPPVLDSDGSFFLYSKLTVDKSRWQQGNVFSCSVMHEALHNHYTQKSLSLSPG
light: B2 light with V112I
notes: also called humanized 8K22 H2L1
B27: v29677 (scFv)
scFv: DIQMTQSPSSLSASVGDRVTITCQASQSIYSSLAWYQQKPGKAPKLLIYDASHLASGVPSRFSGSRYGTDFTLTISSVQPEDFATYYCQGGWYSSAATYVPNTFGGGTKVEVKGGSGGGSGGGSGGGSGGGSGEVQLVESGGGLVQPGGSLRLSCAASGFTISNNYYMCWVRQAPGKGLEWIACIYGGISGRTYYADSAKGRFTISKDSSNTVYLQMNSLRAEDTAVYYCVRGYVGTSNLWGQGTLVTVSS
notes: One-armed, scFv at the N-terminus of Het FcA (Ala-Ala linker); also called N-term VL-(long)-VH
B28: v29684 (scFv)
scFv: B27 scFv with G106C, G178C
notes: One-armed, scFv at the C-terminus of Het FcA; VL-G100C and VH-G44C already in the entry; also called C-term VL-(long)-VH + disulfide
B29: v29676 (scFv)
scFv: DIQMTQSPSSLSASVGDRVTITCQASQSIYSSLAWYQQKPGKAPKLLIYDASHLASGVPSRFSGSRYGTDFTLTISSVQPEDFATYYCQGGWYSSAATYVPNTFGGGTKVEVKGGGGSGGGGSGGGGSEVQLVESGGGLVQPGGSLRLSCAASGFTISNNYYMCWVRQAPGKGLEWIACIYGGISGRTYYADSAKGRFTISKDSSNTVYLQMNSLRAEDTAVYYCVRGYVGTSNLWGQGTLVTVSS
notes: One-armed: scFv fused by an Ala-Ala linker to the N-terminus (hinge) of Het FcA, paired with Het FcB Fc; also called N-term VL-(short)-VH
B30: v29678 (scFv)
scFv: B29 scFv
notes: also called C-term VL-(short)-VH
B31: v29682 (scFv)
scFv: B29 scFv with G106C, G173C
notes: One-armed, scFv at the C-terminus of Het FcA; VL-G100C and VH-G44C (Kabat) already in the entry; also called C-term VL-(short)-VH + disulfide
B32: v29675 (antibody, V domains shown)
VH: B6 VH
VL: DIQMTQSPSSLSASVGDRVTITCQASQSIYSSLAWYQQKPGKAPKLLIYDASHLASGVPSRFSGSRYGTDFTLTISSVQPEDFATYYCQGGWYSSAATYVPNTFGGGTKVEVK
notes: One-armed antibody, humanized 8K22 (H4L3 of v23807) Fab on a heterodimeric IgG1 Fc; also called N-term Parent Fab; Parent Fab antibody

Where a chain is given by its changes, count along the chain named. Numbers in names are those of the source.

The target of one experiment is T1, recombinant His-tagged human FRα (human, UniProt P15328 25-234).
T1 construct: Bought protein; also called hFRα; FRα-HIS
T1 sequence (P15328 25-234 limits assumed): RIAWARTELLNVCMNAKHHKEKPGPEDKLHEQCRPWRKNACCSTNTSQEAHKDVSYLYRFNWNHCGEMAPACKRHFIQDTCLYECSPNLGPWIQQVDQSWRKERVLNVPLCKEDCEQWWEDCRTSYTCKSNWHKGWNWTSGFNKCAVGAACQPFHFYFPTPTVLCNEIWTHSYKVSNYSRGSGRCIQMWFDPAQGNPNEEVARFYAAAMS
The experiment is described as follows: BLI, purified, average n=2. In general terms: In BLI a coated tip is dipped into the sample, and binding shifts an interference pattern.
Protocol: (§1) The assay buffer used was KB buffer (kinetics buffer, composed of PBS pH 7.4, 0.1% BSA, 0.02% Tween 20, 0.05% sodium azide) supplemented with 0.06% Tween 20. The experiment was conducted at 25° C. with a shake speed of 1000 rpm.
(§2) Data analysis was performed using the Data analysis software 9.0′ (ForteBio). The reference-subtracted binding curves were globally fitted to the 1:1 interaction model to generate the binding kinetic parameters kₒₙ, koff, and the dissociation constant KD.
A word on the Kd: it is the free concentration of one partner at which half of the binding sites on the other are occupied at equilibrium, for simple one-to-one binding. In the case of B1, the dissociation constant Kd was determined as 4.11 nM.
Consider B2, for which the Kd came to 8.53 nM.
On to B3, for which the Kd is 8.66 nM.
B4: the Kd turned out to be 6.31 nM.
Take B5: the Kd is 11.2 nM.
On to B6, for which the Kd was 7.07 nM.
As to B7, the Kd stood at 4.8 nM.
Turning to B8, the Kd amounted to 9.03 nM.
With B9, the Kd is 10.6 nM.
Still for that read-out and setting: in the case of B10 it was 7.36 nM; in that of B11, 7 nM.
On the same count and under the same terms, then B12, with 6.85 nM; and B13, with 8.83 nM; and B14, with 6.13 nM.
In the case of B15, the Kd is 16.5 nM.
For B16, the Kd was found to be 8.74 nM.
B17: the Kd came out at 11.9 nM.
Consider B18, for which the Kd was 4.66 nM.
For the molecule B19, the Kd is 10.2 nM.
On to B20, for which the Kd is 6.41 nM.
Consider B21, for which the Kd is 13.1 nM.

The next experiment concerns the target T1, recombinant His-tagged human FRα. The experiment is described as follows: BLI, supernatant, n=1.
Protocol: as §1, §2
Regarding B1, the Kd came out at 5.94 nM.
On to B22, for which the Kd was found to be 36.5 nM.
The same measure, in the same setting: then B2, with 17.9 nM.
For B3, the Kd was found to be 22.1 nM.
For the molecule B23, the Kd turned out to be 34.6 nM.
B4: the Kd was 10.1 nM.
Take B24: the Kd amounted to 35 nM.
For B5, the Kd was found to be 22.2 nM.
In the case of B6, the Kd is 10.9 nM.
As to B7, the dissociation constant Kd was determined as 13.8 nM.
With B8, the Kd amounted to 12.1 nM.
For B9, the Kd was determined as 10.4 nM.
Take B10: the Kd was found to be 15.1 nM.
On to B11, for which the Kd worked out at 11.5 nM.
Turning to B12, the Kd is 11.9 nM.
As to B13, the Kd came out at 22.5 nM.
In the case of B14, the Kd was determined as 17.4 nM.
Turning to B15, the Kd came out at 16.7 nM.
Same read-out and setting: in the case of B16 it was 19.5 nM; in that of B17, 14.9 nM.
Regarding B25, the Kd turned out to be 31.7 nM.
As for B26, the Kd came to 35.7 nM.
Take B18: the Kd was 9.29 nM.
On the same count and under the same terms, in the case of B19 it was 16.2 nM; in that of B20, 9.5 nM; in that of B21, 19.3 nM.

The target is the same in a further experiment. The experiment is described as follows: BLI, n=2.
Protocol: as §1, §2
All parameters remained the same except for the dissociation phase which was recorded for 1500 s.
Turning to B27, the Kd amounted to 5 nM.
For the molecule B28, the Kd was 0.88 nM.
Same read-out and setting: in the case of B29 it was 3.9 nM; in that of B30, 5.1 nM.
Take B31: the Kd is 2.1 nM.
For B32, the Kd amounted to 4.1 nM.

The values above are taken from US20230052369A1 (Zymeworks, published 2023).
